# Patent publication US20220195052A1 (Biogen, published 2022)
# Positions count from the first letter of the chain named.
# B1: Exemplary Antibody 18 (antibody, V domains shown)
# VH: QVQLVQSGAEVKKPGASVKVSCKASGYTFRSFYMHWVRQAPGQGLEWMGVINPSLGSTGYAQKFQGRVTMTRDTSTSTVYMELSSLRSEDTAVYYCARETNYYRGGPAFDIWGQGTMVTVSS
# VL: not shown
# notes: expressed in yeast (Adimab platform) and purified on protein A; also called Ex. Ab 18
# B2: Exemplary Antibody 17 (antibody, V domains shown)
# VH: EVQLVQSGAEVKKPGESLKISCKGSGYSFTSYWIGWVRQMPGKGLEWMGIIYPGDSDTRYSPSFQGQVTISADKSISTAYLQWSSLKASDTAMYYCARGPRSRGDGPSNYYYMDVWGQGTLVTVSS
# VL: DIQMTQSPSTLSASVGDRVTITCRASQSISSWLAWYQQKPGKAPKLLIYKASSLESGVPSRFSGSGSGTEFTLTISSLQPDDFATYYCQQYRPLPPTFGGGTKVEIK
# notes: expressed in yeast (Adimab platform) and purified on protein A; also called Ex. Ab 17
# B3: Exemplary Antibody 19 (antibody, V domains shown)
# VH: QVQLVESGGGVVQPGRSLRLSCAASGFTFSSYGMHWVRQAPGKGLEWVAVISYDGSNKYYADSVKGRFTISRDNSKNTLYLQMNSLRAEDTAVYYCARGGPTRGDGTRVYYYGMDVWGQGTTVTVSS
# VL: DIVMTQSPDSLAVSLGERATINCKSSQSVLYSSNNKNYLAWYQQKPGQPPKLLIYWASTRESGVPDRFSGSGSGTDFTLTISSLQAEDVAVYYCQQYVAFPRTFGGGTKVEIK
# notes: expressed in yeast (Adimab platform) and purified on protein A; also called Ex. Ab 19
# B4: Exemplary Antibody 4 (antibody, V domains shown)
# VH: QVQLVESGGGLVQPGGSLRLSCAASGFTFTSYYMHWVRQAPGQGLEWMGIINPSGGSTSYAQKFQGRVTMTRDTSTSTVYMELSSLRSEDTAVYYCARQQRHRRDYDYYYGMDVWGQGTTVTVSS
# VL: EIVLTQSPGTLSLSPGERATLSCRASQSVSSDYLAWYQQKPGQAPRLLIYGASRRATGIPDRFSGSGSGTDFTLTISRLEPEDFAVYYCQQAYSLPPTFGGGTKVEIK
# notes: expressed in yeast (Adimab platform) and purified on protein A; also called Ex. Ab 4
# B5: Exemplary Antibody 6 (antibody, V domains shown)
# VH: QVQLVESGGGLVKPGGSLRLSCAASGFTFSDYYMSWIRQAPGKGLEWVSYISSSGSTIYYADSVKGRFTISRDNAKNSLYLQMNSLRAEDTAVYYCARGGRNRGDSSLSGIDVWGQGTTVTVSS
# VL: DIQMTQSPSSLSASVGDRVTITCRASQSINSYLNWYQQKPGKAPKLLIYAASSLQSGVPSRFSGSGSGTDFTLTISSLQPEDFATYYCQQQYSDITFGGGTKVEIK
# notes: expressed in yeast (Adimab platform) and purified on protein A; also called Ex. Ab 6
# B6: Exemplary Antibody 20 (antibody, V domains shown)
# VH: B5 VH with R101P, N102S, S106A, S107L, L108A, S109E, G110Y, I111F, D112Q, V113H
# VL: EIVLTQSPATLSLSPGERATLSCRASQSVSRYLAWYQQKPGQAPRLLIYDASNRATGIPARFSGSGSGTDFTLTISSLEPEDFAVYYCQQLSLHPPYTFGGGTKVEIK
# notes: expressed in yeast (Adimab platform) and purified on protein A; also called Ex. Ab 20
# B7: Exemplary Antibody 13 (antibody, V domains shown)
# VH: B5 VH with R101P, N102S, S106A, S107L, L108A, S109E, G110Y, I111F, D112Q, V113H
# VL: EIVMTQSPATLSVSPGERATLSCRASQSVSSNLAWYQQKPGQAPRLLIYGASTRATGIPARFSGSGSGTEFTLTISSLQSEDFAVYYCQQLTNHPPIAFGGGTKVEIK
# notes: expressed in yeast (Adimab platform) and purified on protein A; also called Ex. Ab 13
# B8: Exemplary Antibody 7 (antibody, V domains shown)
# VH: B5 VH with R101P, N102S, S106A, S107L, L108A, S109E, G110Y, I111F, D112Q, V113H
# VL: B7 VL with T92V, H94Y, A98T
# notes: expressed in yeast (Adimab platform) and purified on protein A; also called Ex. Ab 7
# B9: Exemplary Antibody 14 (antibody, V domains shown)
# VH: QVQLVESGGGLVKPGGSLRLSCAASGFTFSDYYMSWIRQAPGKGLEWVSYISSSGSTIYYADSVKGRFTISRDNAKNSLYLQMNSLRAEDTAVYYCARERGNRGDTPRYYYMDVWGKGTTVTVSS
# VL: DIQMTQSPSSLSASVGDRVTITCRASQSISRYLNWYQQKPGKAPKLLIYAASSLQSGVPSRFSGSGSGTDFTLTISSLQPEDFATYYCQQSLVTPFTFGGGTKVEIK
# notes: expressed in yeast (Adimab platform) and purified on protein A; also called Ex. Ab 14
# B10: Exemplary Antibody 5 (antibody, V domains shown)
# VH: B3 VH with Q1E, S30K, S31Y, V50S, S52W, Y59K
# VL: EIVMTQSPATLSVSPGERATLSCRASQSVSSNLAWYQQKPGQAPRLLIYSASTRATGIPARFSGSGSGTEFTLTISSLQSEDFAVYYCQQYYHHPFTFGGGTKVEIK
# notes: expressed in yeast (Adimab platform) and purified on protein A; also called Ex. Ab 5
# Target: αvβ6 integrin on stably transfected cells (human, UniProt P06756 31-1048; P18564 22-788)
# Assay: flow cytometry on stably transfected cells, antibody titration (bivalent EC50)
# Experimental: (§1) Cells were washed in the appropriate assay buffer three times by pelleting at 1500 RPM for 3 minutes and then pouring out supernatant. Assay buffer for this experiment was TBS containing 1 mg/mL BSA and supplemented with either 1 mM Ca+1 mM Mg or with 1 mM Mn. Cells were then resuspended in assay buffer at a concentration of 1.0-1.5×10⁶ cells/mL and transferred to wells of a 96-well assay plate (Corning 3799) in 50 μL aliquots. Plates were then centrifuged at 2000 RPM for 3 minutes to pellet cells and supernatant was flicked out. Cells were resuspended in 100 μL of antibody sample and incubated on ice for 45 to 60 minutes.
# (§2) Plates were washed three times in 150 μL assay buffer by pelleting at 2000 RPM for 3 minutes and then flicking out the supernatant. Cells were then resuspended in 50 μL of phycoerythrin-conjugated goat anti-human Fab secondary reagent and incubated on ice in the dark for 30 minutes. Plates were washed three times in 150 μL assay buffer by pelleting at 2000 RPM for 3 minutes and then flicking out the supernatant. Cells were then resuspended in 200 μL of assay buffer+1% polyformaldehyde (PFA) for 30 minutes on ice to fix the cells. Cells were pelleted to remove the PFA and then resuspended in 150 μL assay buffer.
row,Binder,EC50 [nM]
1,B1,16

# Target: T1, αvβ3 integrin on stably transfected cells (human, UniProt P05106 27-788)
# T1 construct: whole, on cells
# Assay: as above
# Experimental: as §1, §2
row,Binder,EC50 [nM]
1,B1,13
2,B2,3.3

# Target: T2, αvβ5 integrin on stably transfected cells (human, UniProt P18084 24-799)
# T2 construct: whole, on cells
# Assay: as above
# Experimental: as §1, §2
row,Binder,EC50 [nM]
1,B1,11

# Target: T3, αvβ8 integrin on stably transfected cells (human, UniProt P26012 43-769)
# T3 construct: whole, on cells
# T3 sequence (chain, as listed by the source, chain 1 of 2): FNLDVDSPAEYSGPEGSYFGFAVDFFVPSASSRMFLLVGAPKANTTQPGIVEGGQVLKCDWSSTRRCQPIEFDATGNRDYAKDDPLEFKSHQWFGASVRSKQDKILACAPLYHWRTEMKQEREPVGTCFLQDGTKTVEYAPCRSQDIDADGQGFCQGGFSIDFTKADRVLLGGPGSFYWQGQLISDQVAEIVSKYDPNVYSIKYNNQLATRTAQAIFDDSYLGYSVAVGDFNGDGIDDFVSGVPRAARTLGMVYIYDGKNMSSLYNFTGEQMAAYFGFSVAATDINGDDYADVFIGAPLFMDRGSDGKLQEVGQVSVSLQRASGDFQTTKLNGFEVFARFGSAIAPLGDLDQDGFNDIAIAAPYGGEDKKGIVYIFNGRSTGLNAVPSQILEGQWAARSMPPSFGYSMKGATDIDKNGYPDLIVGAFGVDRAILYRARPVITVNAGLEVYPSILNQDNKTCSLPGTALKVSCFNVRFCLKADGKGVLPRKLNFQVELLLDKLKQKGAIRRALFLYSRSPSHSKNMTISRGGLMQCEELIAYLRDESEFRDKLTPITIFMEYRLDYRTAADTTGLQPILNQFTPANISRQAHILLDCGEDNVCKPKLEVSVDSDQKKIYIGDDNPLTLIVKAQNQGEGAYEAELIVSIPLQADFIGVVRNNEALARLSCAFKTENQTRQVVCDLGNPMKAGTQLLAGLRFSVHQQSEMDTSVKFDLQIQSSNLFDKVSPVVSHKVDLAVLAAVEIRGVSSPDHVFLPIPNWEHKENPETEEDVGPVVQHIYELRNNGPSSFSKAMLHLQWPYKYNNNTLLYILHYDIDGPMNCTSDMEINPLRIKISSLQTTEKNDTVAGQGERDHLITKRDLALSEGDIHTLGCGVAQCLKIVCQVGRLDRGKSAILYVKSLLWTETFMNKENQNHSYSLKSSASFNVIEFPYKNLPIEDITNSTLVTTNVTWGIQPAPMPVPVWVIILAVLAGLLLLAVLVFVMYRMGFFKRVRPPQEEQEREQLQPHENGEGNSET
# T3 sequence (P26012 43-769, chain 2 of 2): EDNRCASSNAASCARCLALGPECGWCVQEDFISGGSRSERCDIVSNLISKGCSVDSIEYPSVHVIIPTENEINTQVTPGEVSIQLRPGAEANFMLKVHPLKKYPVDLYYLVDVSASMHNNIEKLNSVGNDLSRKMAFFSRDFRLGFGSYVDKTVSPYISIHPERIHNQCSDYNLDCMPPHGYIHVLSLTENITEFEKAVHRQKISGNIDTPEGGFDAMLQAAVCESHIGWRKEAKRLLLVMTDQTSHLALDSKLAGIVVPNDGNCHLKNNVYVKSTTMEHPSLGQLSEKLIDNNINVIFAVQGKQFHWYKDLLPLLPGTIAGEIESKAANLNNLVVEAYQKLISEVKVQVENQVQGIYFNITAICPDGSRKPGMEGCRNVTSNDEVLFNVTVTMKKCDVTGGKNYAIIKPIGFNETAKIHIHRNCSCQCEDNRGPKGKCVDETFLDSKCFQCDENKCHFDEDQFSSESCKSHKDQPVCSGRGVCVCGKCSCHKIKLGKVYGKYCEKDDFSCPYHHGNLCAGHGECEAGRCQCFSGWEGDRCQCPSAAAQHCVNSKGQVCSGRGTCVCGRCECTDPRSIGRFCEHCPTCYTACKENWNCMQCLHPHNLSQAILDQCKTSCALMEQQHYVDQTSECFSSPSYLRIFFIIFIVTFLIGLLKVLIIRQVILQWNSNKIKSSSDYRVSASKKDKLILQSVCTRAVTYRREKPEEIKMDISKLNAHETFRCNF
# Assay: as above
# Experimental: as §1, §2
row,Binder,EC50 [nM]
1,B1,10
2,B3,2.8

# Target: T4, human αvβ1 integrin on cells (human, UniProt P06756 31-1048; P05556 21-798)
# T4 construct: also called stably transfected human αvβ1 cells; αvβ1 on MRC9 human lung fibroblasts
# T4 sequence (P06756 31-1048 limits assumed, chain 1 of 2): as the sequence (chain, as listed by the source, chain 1 of 2) above
# T4 sequence (P05556 21-798 limits assumed, chain 2 of 2): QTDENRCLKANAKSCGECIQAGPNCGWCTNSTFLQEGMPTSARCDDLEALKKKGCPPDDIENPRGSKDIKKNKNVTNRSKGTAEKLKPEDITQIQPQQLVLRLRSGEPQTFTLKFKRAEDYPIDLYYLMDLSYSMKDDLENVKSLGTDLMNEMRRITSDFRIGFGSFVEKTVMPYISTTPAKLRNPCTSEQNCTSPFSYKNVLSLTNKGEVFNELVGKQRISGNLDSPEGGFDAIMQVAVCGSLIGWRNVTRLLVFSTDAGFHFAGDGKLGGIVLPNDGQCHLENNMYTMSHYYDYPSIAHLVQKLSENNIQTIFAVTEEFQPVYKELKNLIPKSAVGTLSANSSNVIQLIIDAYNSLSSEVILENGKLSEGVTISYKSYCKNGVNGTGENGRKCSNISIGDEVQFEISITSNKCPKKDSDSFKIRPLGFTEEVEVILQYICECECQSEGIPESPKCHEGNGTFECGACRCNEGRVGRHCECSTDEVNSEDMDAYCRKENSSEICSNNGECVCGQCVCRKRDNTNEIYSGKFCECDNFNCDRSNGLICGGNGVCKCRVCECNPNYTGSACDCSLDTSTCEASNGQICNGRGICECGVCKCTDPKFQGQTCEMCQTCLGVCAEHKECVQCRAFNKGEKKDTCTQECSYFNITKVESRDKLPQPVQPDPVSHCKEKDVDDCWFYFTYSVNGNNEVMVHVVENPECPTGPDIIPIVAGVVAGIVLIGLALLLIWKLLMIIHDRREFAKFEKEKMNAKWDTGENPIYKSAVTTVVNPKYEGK
# Assay: as above
# Experimental: as §1, §2
row,Binder,EC50 [nM]
1,B1,2
2,B2,1.4
3,B4,4.9
4,B5,0.8
5,B6,0.4
6,B7,0.6
7,B8,1.2
8,B3,2.8
9,B9,0.8

# Target: T5, α4β1 integrin on cells (human, UniProt P13612 34-1032)
# T5 construct: whole, on cells; also called α4β1 on Jurkat cells; stably transfected α4β1 cells
# Assay: Jurkat cell adhesion to VCAM-Ig, confirming the absence of binding to α4β1 cells in Example 3
# Experimental: (§3) The plate was washed twice with PBS (200 μl/well), blocked with 1% BSA in PBS (200 μl/well) for 1 h at room temperature, and washed thrice with 200 μl/well of assay buffer (TBS, 2 mM Glucose, 0.1% BSA, 1 mM CaCl₂) and 1 mM MgCl₂, pH 7.4). Jurkat cells were removed from cell suspension and centrifuged at 1500 rpm for 5 mins. The pellet was resuspended in RPMI 1640, 1% BSA buffer and incubated with 2 μM fluorescent dye (BCECF, Molecular Probes, Eugene, Oreg.) in a 37° C. incubator for 30 min. The labeled cells were washed twice by centrifugation at 1100 rpm for 5 min and resuspended in assay buffer to 0.8×10⁶ cells/ml. To individual wells of the washed plate were added 50 μl of purified antibody and 50 μl of Jurkat cells labeled with BCECF, and the plate was incubated at room temperature in dark for 1 h. The plate was washed 3-4 times with assay buffer (200 μl/well), and the fluorescence due to adhered cells on the plate was recorded at 485 nm (Excitation) and 538 nm (Emission) wavelength. Percent binding was determined by comparing the fluorescence prior to the final wash step (i.e. total cells added) to that after washing (i.e. bound cells).
# This includes examples for a pan-αv commercial antibody (L230), a pan-β1 commercial antibody (mAb13), a published α4-specific antibody (natalizumab), and the c8 small molecule compound previously published as αvβ1 specific (Reed N I et al, Sci Transl Med, 7(288): 288ra79 (2015)).
row,Binder,binding result
1,B2,no binding
2,B4,no binding
3,B3,no binding
4,B10,no binding

# Target: T6, mouse αvβ1 integrin on BLO-11 mouse skeletal muscle fibroblasts (mouse, UniProt P43406 31-1044; P09055 21-798)
# T6 construct: whole, on cells; the cells carry other integrins as well; also called BLO-11 (murine fibroblast cells)
# T6 sequence (P43406 31-1044, chain 1 of 2): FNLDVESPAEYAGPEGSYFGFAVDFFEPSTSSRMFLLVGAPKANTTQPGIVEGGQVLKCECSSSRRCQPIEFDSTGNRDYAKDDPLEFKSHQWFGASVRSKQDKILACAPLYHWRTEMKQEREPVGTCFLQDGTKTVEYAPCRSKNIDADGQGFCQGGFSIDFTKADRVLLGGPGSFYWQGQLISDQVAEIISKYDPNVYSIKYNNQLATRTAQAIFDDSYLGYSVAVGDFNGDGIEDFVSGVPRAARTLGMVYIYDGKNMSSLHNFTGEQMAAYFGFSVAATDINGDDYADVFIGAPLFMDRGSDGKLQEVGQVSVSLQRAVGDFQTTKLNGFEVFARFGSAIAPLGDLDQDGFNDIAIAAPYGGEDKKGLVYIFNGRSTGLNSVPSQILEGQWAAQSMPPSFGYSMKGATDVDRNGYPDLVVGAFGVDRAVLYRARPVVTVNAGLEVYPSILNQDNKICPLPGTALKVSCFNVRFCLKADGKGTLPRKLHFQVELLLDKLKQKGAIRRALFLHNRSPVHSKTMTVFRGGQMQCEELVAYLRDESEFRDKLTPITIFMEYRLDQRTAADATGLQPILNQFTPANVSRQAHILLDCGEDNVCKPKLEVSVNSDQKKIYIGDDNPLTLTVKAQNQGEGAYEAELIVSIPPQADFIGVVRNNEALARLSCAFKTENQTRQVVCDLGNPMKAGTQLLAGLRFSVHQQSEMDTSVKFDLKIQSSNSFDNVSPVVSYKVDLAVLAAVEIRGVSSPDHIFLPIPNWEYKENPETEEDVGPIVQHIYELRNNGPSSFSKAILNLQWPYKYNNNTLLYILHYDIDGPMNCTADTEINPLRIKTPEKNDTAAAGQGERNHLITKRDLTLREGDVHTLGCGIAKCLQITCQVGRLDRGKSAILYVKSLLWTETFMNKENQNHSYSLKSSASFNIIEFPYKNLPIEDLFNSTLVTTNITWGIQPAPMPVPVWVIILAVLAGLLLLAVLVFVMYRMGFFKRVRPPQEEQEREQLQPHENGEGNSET
# T6 sequence (P09055 21-798, chain 2 of 2): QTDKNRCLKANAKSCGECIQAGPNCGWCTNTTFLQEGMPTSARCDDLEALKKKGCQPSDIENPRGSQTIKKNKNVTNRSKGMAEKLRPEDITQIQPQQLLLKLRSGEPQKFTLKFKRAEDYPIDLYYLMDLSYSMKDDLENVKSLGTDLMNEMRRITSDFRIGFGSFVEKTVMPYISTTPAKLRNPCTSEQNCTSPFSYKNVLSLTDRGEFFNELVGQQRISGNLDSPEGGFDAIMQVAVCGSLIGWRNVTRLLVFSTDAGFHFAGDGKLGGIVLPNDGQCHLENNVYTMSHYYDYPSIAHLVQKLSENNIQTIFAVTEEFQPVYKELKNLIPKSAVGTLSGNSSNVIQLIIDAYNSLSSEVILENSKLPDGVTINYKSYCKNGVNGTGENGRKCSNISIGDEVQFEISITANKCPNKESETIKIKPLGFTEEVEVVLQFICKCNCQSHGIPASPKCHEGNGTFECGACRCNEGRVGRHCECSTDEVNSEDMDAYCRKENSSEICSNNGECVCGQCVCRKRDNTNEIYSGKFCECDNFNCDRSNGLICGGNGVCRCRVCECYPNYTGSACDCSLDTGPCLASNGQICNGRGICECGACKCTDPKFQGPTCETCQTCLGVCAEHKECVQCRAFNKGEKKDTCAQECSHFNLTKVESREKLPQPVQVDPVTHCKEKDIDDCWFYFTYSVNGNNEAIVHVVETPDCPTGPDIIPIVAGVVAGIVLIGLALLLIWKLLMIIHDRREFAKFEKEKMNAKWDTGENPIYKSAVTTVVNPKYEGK
# Assay: flow cytometry on BLO-11 mouse skeletal muscle fibroblasts
# Experimental: MRC9 cells were obtained from Sigma (#85020202) and maintained in EMEM (ATCC, #30-2003) supplemented with 10% Fetal Bovine Serum (FBS from Gibco, #16000-077). BLO-11 cells were obtained from ATCC (#CCL-198) and maintained in DMEM (ATCC, #30-2002) supplemented with 10% FBS. Cells were harvested by incubating with cell dissociation buffer (Gibco, #13150-016) at 37° C. for 10 min and then washed with FACS buffer containing CaCl₂) and MgCl₂ (FACS⁺⁺ buffer; PBS+1% BSA+1 mM CaCl₂)+1 mM MgCl₂). All staining and wash steps were performed at 4° C. in FACS⁺⁺ buffer. In a 96 well U bottom plate, 0.75×10⁶ cells per well were plated and then spun down to remove supernatant. Cells were then resuspended in serially diluted primary antibody and incubated for 30 min. After incubation, cells were washed twice and then incubated with α-human IgG Alexa Fluor 647 (Invitrogen, #A21445) secondary antibody for another 30 min. Cells were then washed twice and fixed with 1% PFA diluted in PBS for 30 min, followed by a final wash. Fluorescence activated cell sorting (FACS) analysis was performed using a five-laser BD LSR-II flow cytometer (BD Biosciences, San Jose, Calif., USA), and data were analyzed using FlowJo software v9 (Treestar, Ashland, Oreg., USA) and transferred into analysis and graphic software including GraphPad Prism 7 (La Jolla, Calif., USA).
row,Binder,binding result
1,B2,binds
2,B4,binds
3,B3,binds

# Target: T4, human αvβ1 integrin on cells
# Assay: inhibition of adhesion of BCECF-labelled αvβ1-transfected cells to plate-coated LAP
# Experimental: as §3, with “7.4). Stably transfected human αvβ1” for “7.4). Jurkat”, “at 1100” for “at 1500”, “of human αvβ1” for “of Jurkat”
row,Binder,IC50 [nM]
1,B2,< 1
2,B4,2.8
3,B5,9
4,B6,1
5,B7,1.3
6,B8,4.3
7,B3,1.4
8,B9,2.2

# Target: T3, αvβ8 integrin on stably transfected …
# Assay: flow cytometry on stably transfected cells; weak binding observed but incomplete fit to calculate EC50
# Experimental: as §1, §2
row,Binder,binding result
1,B6,binds
